Here are results for 18 sequences from the Immune Epitope Database (IEDB).

The target of assay [1] is HLA-A*02:01. Briefly: IEDB peptide-MHC binding, cellular MHC/competitive/fluorescence; ≥ and ≤ were set here for values at or beyond the usual limits of such assays.
For a further assay, the target named is HLA-A*02:02. As to the kind of experiment: IEDB peptide-MHC binding, purified MHC/competitive/radioactivity; ≥ and ≤ were set here for values at or beyond the usual limits of such assays.
In the next assay the target is HLA-A*02:03. The assay is described as above.
The next assay deals with HLA-A*02:06. The assay is described as above.
The target of another assay is HLA-A*68:02. Described as above.
Assay [2] addresses HLA-A*02:01. The assay is described as above.
Setting [3] is: source organism: Mammarenavirus choriomeningitidis.
Where [4] appears, read: source organism: Influenza A virus.
[5] abbreviates: source organism: Vaccinia virus WR.

With ALMDCIIFES, the IC50 with HLA-A*02:01 [1] (setting [3]) stood at 6230 nM; in the assay with HLA-A*02:02 (setting [3]) it was 2.1 nM; with HLA-A*02:03 (setting [3]) it was 16 nM; with HLA-A*02:06 (setting [3]) it was 13 nM; with HLA-A*68:02 (setting [3]) it was 507 nM.
Consider ATAGLTHMMI, for which the IC50 in the assay with HLA-A*02:01 [1] (setting [4]) amounted to 12100 nM; with HLA-A*02:02 (setting [4]), 636 nM; with HLA-A*02:03 (setting [4]), 1060 nM; in the assay with HLA-A*02:06 (setting [4]), 2200 nM; with HLA-A*68:02 (setting [4]) it was 138 nM.
As for AVKFAEESYT, the 50% inhibitory concentration (IC50) in the assay with HLA-A*02:01 [1] (setting [5]) was determined as 7830 nM; with HLA-A*02:02 (setting [5]), 1760 nM; in the assay with HLA-A*02:03 (setting [5]), 1470 nM; with HLA-A*02:06 (setting [5]), 2260 nM; with HLA-A*68:02 (setting [5]), 2290 nM.
As to DVNSVQFSIL, the IC50 in the assay with HLA-A*02:01 [1] (setting [5]) is 6660 nM; with HLA-A*02:02 (setting [5]) it was 2270 nM; with HLA-A*02:03 (setting [5]), 1660 nM; with HLA-A*02:06 (setting [5]), 3400 nM; with HLA-A*68:02 (setting [5]), 2770 nM.
As to EATFIDVHI, the IC50 with HLA-A*02:01 [1] (setting [5]) stood at 10700 nM; in the assay with HLA-A*02:02 (setting [5]) it was 1660 nM; with HLA-A*02:03 (setting [5]) it was 862 nM; with HLA-A*02:06 (setting [5]) it was 3430 nM; with HLA-A*68:02 (setting [5]) it was 0.13 nM.
For ELAYYNSCML the same measures were 12500 nM, 1870 nM, 151 nM, 3570 nM and 650 nM.
ELIDVLKTRL: the IC50 turned out to be 5430 nM in the assay with HLA-A*02:01 [1] (setting [5]); 262 nM in the assay with HLA-A*02:02 (setting [5]); 118 nM with HLA-A*02:03 (setting [5]); 1990 nM with HLA-A*02:06 (setting [5]); 1420 nM in the assay with HLA-A*68:02 (setting [5]).
With ETMYLTMKAI, the IC50 stood at 6580 nM with HLA-A*02:01 [1] (setting [5]); 1320 nM in the assay with HLA-A*02:02 (setting [5]); 25 nM in the assay with HLA-A*02:03 (setting [5]); 3580 nM with HLA-A*02:06 (setting [5]); 4 nM with HLA-A*68:02 (setting [5]).
Take YLGIFKNNDV: the IC50 in the assay with HLA-A*02:01 [2] (setting [5]) stood at 16 nM; with HLA-A*02:02 (setting [5]), 15 nM; in the assay with HLA-A*02:03 (setting [5]), 17 nM; in the assay with HLA-A*02:06 (setting [5]), 285 nM; with HLA-A*68:02 (setting [5]), 696 nM.
In the case of YLGPRVCWL, the IC50 with HLA-A*02:01 [2] (setting [5]) came to 2.2 nM; with HLA-A*02:02 (setting [5]) it was 0.9 nM; with HLA-A*02:03 (setting [5]), 3.4 nM; with HLA-A*02:06 (setting [5]), 23 nM; in the assay with HLA-A*68:02 (setting [5]) it was 514 nM.
Turning to YLLFNHFSV, the IC50 with HLA-A*02:01 [2] (setting [5]) amounted to 0.27 nM; with HLA-A*02:02 (setting [5]), 1.2 nM; with HLA-A*02:03 (setting [5]), 1.6 nM; in the assay with HLA-A*02:06 (setting [5]) it was 0.73 nM; in the assay with HLA-A*68:02 (setting [5]) it was 39 nM.
In the case of YLMCLSPLM, the IC50 with HLA-A*02:01 [2] (source organism: SARS-CoV1) is 0.34 nM; with HLA-A*02:02 (source organism: SARS-CoV1) it was 0.14 nM; with HLA-A*02:03 (source organism: SARS-CoV1), 0.3 nM; with HLA-A*02:06 (source organism: SARS-CoV1) it was 1.1 nM; with HLA-A*68:02 (source organism: SARS-CoV1) it was 1240 nM.
Take YLMCLSPLMA: the IC50 in the assay with HLA-A*02:01 [2] (source organism: SARS-CoV1) turned out to be 0.65 nM; in the assay with HLA-A*02:02 (source organism: SARS-CoV1), 0.24 nM; with HLA-A*02:03 (source organism: SARS-CoV1) it was 0.13 nM; with HLA-A*02:06 (source organism: SARS-CoV1), 1.3 nM; with HLA-A*68:02 (source organism: SARS-CoV1), 166 nM.
In the case of YLRGHTESI, the IC50 came to 3.7 nM with HLA-A*02:01 [2] (setting [5]); 0.21 nM with HLA-A*02:02 (setting [5]); 0.18 nM in the assay with HLA-A*02:03 (setting [5]); 91 nM with HLA-A*02:06 (setting [5]); 506 nM with HLA-A*68:02 (setting [5]).
In the case of YLRLYIILA, the half-maximal inhibitory concentration (IC50) with HLA-A*02:01 [2] (setting [5]) stood at 190 nM; with HLA-A*02:02 (setting [5]) it was 8.3 nM; in the assay with HLA-A*02:03 (setting [5]), 52 nM; in the assay with HLA-A*02:06 (setting [5]) it was 4180 nM; with HLA-A*68:02 (setting [5]), 2720 nM.
On to YLSSVLLAL, for which the IC50 stood at 0.55 nM in the assay with HLA-A*02:01 [2] (source organism: SARS-CoV1); 0.14 nM in the assay with HLA-A*02:02 (source organism: SARS-CoV1); 0.31 nM in the assay with HLA-A*02:03 (source organism: SARS-CoV1); 8.2 nM in the assay with HLA-A*02:06 (source organism: SARS-CoV1); 10 nM with HLA-A*68:02 (source organism: SARS-CoV1).
Consider YLYNKYSFKL, for which the IC50 in the assay with HLA-A*02:01 [2] (setting [5]) was determined as 0.078 nM; with HLA-A*02:02 (setting [5]) it was 0.11 nM; with HLA-A*02:03 (setting [5]), 0.035 nM; with HLA-A*02:06 (setting [5]), 0.14 nM; with HLA-A*68:02 (setting [5]), 4.8 nM.
For the sequence YLYTEYFLFL, the 50% inhibitory concentration (IC50) with HLA-A*02:01 [2] (setting [5]) came to 0.069 nM; with HLA-A*02:02 (setting [5]) it was 0.085 nM; with HLA-A*02:03 (setting [5]), 0.56 nM; in the assay with HLA-A*02:06 (setting [5]), 0.007 nM; with HLA-A*68:02 (setting [5]), 76 nM.
